Here are results for one variant from FireProtDB (doi:10.1021/bi972395d).

Sequences and labels used below:
B1: Superoxide dismutase [Mn], mitochondrial, P04179 (parent)
chain: MLSRAVCGTSRQLAPVLGYLGSRQKHSLPDLPYDYGALEPHINAQIMQLHHSKHHAAYVNNLNVTEEKYQEALAKGDVTAQIALQPALKFNGGGHINHSIFWTNLSPNGGGEPKGELLEAIKRDFGSFDKFKEKLTAASVGVQGSGWGWLGFNKERGHLQIAACPNQDPLQGTTGLIPLLGIDVWEHAYYLQYKNVRPDYLKAIWNVINWENVTERYMACKK

Several values for one entry are separate records, joined by “and”; a condition that tells them apart may be missing. Equal values may be shown once.

Variants of B1 are the subject of the first data set. Conditions: Homo sapiens; pH 7.8; 70 °C; Thermal; DSC; potassium phosphate 2 mM; transition: 2; reversible: Yes; structure 1N0J; whole UniProt chain shown.
For the variant Q167N, the “ddG of mutation (higher = less stable)” value is -2.79 kcal/mol.

Staying with this data set, now noted: Homo sapiens; pH 7.8; 88.9 °C; Thermal; DSC; potassium phosphate 2 mM; transition: 2; reversible: Yes; structure 1N0J; whole UniProt chain shown.
As for Q167N, the “ddG of mutation (higher = less stable)” value was -0.06 kcal/mol.

The same data set, now with this note: Homo sapiens; pH 7.8; Thermal; DSC; potassium phosphate 2 mM; transition: 2; reversible: Yes; structure 1N0J; whole UniProt chain shown.
Turning to Q167N, the “unfolding enthalpy (calorimetric)” value was 100 kcal/mol and 78.3 kcal/mol.
